Test results taken from US20240166765A1 (ICONIC THERAPEUTICS, published 2024).

Experiments:
[1] = target: Relipidated TF (Tissue Factor) (UniProt P13726 33-295, limits assumed); experiment: cell-based or functional assay
Relipidated TF = Relipidated TF (UniProt P13726 33-295, limits assumed); experiment: cell-based or functional assay

Binder	% ETP, Ab 10 nM [1]	% Peak IIa, Ab 10 nM [1]	% Peak IIa, Ab 50 nM [1]	% Peak IIa, Ab 100 nM [1]	% ttPeak, Ab 10 nM [1]	% ttPeak, Ab 50 nM [1]	% ttPeak, Ab 100 nM [1]	ETP [nM · min], Ab 10 nM [1]	Lag Time [min], Ab 10 nM [1]	Lag Time [min], Ab 50 nM [1]	Lag Time [min], Ab 100 nM [1]	Peak IIa [nM], Ab 10 nM [1]	Peak IIa [nM], Ab 50 nM [1]	Peak IIa [nM], Ab 100 nM [1]	ttPeak [min], Ab 10 nM [1]	ttPeak [min], Ab 50 nM [1]	ttPeak [min], Ab 100 nM [1]	% Peak IIa, TGA […] min pre-incubation, 10 nM Ab (Relipidated TF)	% Peak IIa, TGA […] min pre-incubation, 50 nM Ab (Relipidated TF)	% Peak IIa, TGA […] min pre-incubation, 100 nM Ab (Relipidated TF)	further results
39A (antibody, human IgG1, V domains shown) VH: QVQLVQSGAEVKKPGSSVKVSCKASGGTFSSNAIGWVRQAPGQGLEWMGSIIPIIGFANYAQKFQGRVTITADESTSTAYMELSSLRSEDTAVYYCARDSGYYYGASSFGMDVWGQGTTVTVSS VL: EIVMTQSPATLSVSPGERATLSCRASQSVSSNLAWYQQKPGQAPRLLIYGASTRATGIPARFSGSGSGTEFTLTISSLQSEDFAVYYCEQYNNLPLTFGGGTKVEIK	84%	37%	11%	9%	135%	397%	465%	1690 nM·min	10.8 min	29.8 min	34.7 min	122 nM	36 nM	29 nM	18.6 min	39.3 min	44.6 min				
1F (antibody, human IgG1, V domains shown) VH: EVQLLESGGGLVQPGGSLRLSCAASGFTFSDYAMGWVRQAPGKGLEWVSTISGSGGLTYYADSVKGRFTISRDNSKNTLYLQMNSLRAEDTAVYYCAKAPYGYYMDVWGKGTTVTVSS VL: not shown [1F, listing 1 of 2 here]																		16%	8%	7%	% ETP, TGA 10 min pre-incubation, 10 nM Ab (Relipidated TF): 41%; % ttPeak, TGA 10 min pre-incubation, 10 nM Ab (Relipidated TF): 220%; % ttPeak, TGA 10 min pre-incubation, 50 nM Ab (Relipidated TF): 433%; % ttPeak, TGA 10 min pre-incubation, 100 nM Ab (Relipidated TF): 483%; ETP, TGA 10 min pre-incubation, 10 nM Ab (Relipidated TF): 742 nM·min; Lag Time, TGA 10 min pre-incubation, 10 nM Ab (Relipidated TF): 13.8 min; Lag Time, TGA 10 min pre-incubation, 50 nM Ab (Relipidated TF): 26.5 min; Lag Time, TGA 10 min pre-incubation, 100 nM Ab (Relipidated TF): 29.5 min; Peak IIa, TGA […] min pre-incubation, 10 nM Ab (Relipidated TF): 44 nM; Peak IIa, TGA […] min pre-incubation, 50 nM Ab (Relipidated TF): 23 nM; Peak IIa, TGA […] min pre-incubation, 100 nM Ab (Relipidated TF): 20 nM; ttPeak, TGA 10 min pre-incubation, 10 nM Ab (Relipidated TF): 22.4 min; ttPeak, TGA 10 min pre-incubation, 50 nM Ab (Relipidated TF): 37.3 min; ttPeak, TGA 10 min pre-incubation, 100 nM Ab (Relipidated TF): 40.8 min
1F (antibody, human IgG1, V domains shown) VH: EVQLLESGGGLVQPGGSLRLSCAASGFTFSDYAMGWVRQAPGKGLEWVSTISGSGGLTYYADSVKGRFTISRDNSKNTLYLQMNSLRAEDTAVYYCAKAPYGYYMDVWGKGTTVTVSS VL: not shown [1F, listing 2 of 2 here]	86%	47%	9%	8%	89%	347%	419%	1740 nM·min	8.2 min	25.6 min	31 min	155 nM	31 nM	25 nM	14.9 min	35.3 min	41 min				
29E (antibody, human IgG1, V domains shown) VH: QVQLVESGGGVVQPGRSLRLSCAASGFTFRSYGMHWVRQAPGKGLEWVAVITYDGINKYYADSVEGRFTISRDNSKNTLYLQMNSLRAEDTAVYYCARDGVYYGVYDYWGQGTLVTVSS VL: not shown [29E, listing 1 of 2 here]																		36%	30%	28%	% ETP, TGA 10 min pre-incubation, 10 nM Ab (Relipidated TF): 77%; % ETP, TGA 10 min pre-incubation, 50 nM Ab (Relipidated TF): 72%; % ETP, TGA 10 min pre-incubation, 100 nM Ab (Relipidated TF): 66%; % ttPeak, TGA 10 min pre-incubation, 10 nM Ab (Relipidated TF): 159%; % ttPeak, TGA 10 min pre-incubation, 50 nM Ab (Relipidated TF): 237%; % ttPeak, TGA 10 min pre-incubation, 100 nM Ab (Relipidated TF): 247%; ETP, TGA 10 min pre-incubation, 10 nM Ab (Relipidated TF): 1410 nM·min; ETP, TGA 10 min pre-incubation, 50 nM Ab (Relipidated TF): 1300 nM·min; ETP, TGA 10 min pre-incubation, 100 nM Ab (Relipidated TF): 1200 nM·min; Lag Time, TGA 10 min pre-incubation, 10 nM Ab (Relipidated TF): 9.4 min; Lag Time, TGA 10 min pre-incubation, 50 nM Ab (Relipidated TF): 14.1 min; Lag Time, TGA 10 min pre-incubation, 100 nM Ab (Relipidated TF): 14.7 min; Peak IIa, TGA […] min pre-incubation, 10 nM Ab (Relipidated TF): 98 nM; Peak IIa, TGA […] min pre-incubation, 50 nM Ab (Relipidated TF): 83 nM; Peak IIa, TGA […] min pre-incubation, 100 nM Ab (Relipidated TF): 76 nM; ttPeak, TGA 10 min pre-incubation, 10 nM Ab (Relipidated TF): 18.1 min; ttPeak, TGA 10 min pre-incubation, 50 nM Ab (Relipidated TF): 23.6 min; ttPeak, TGA 10 min pre-incubation, 100 nM Ab (Relipidated TF): 24.3 min
29E (antibody, human IgG1, V domains shown) VH: QVQLVESGGGVVQPGRSLRLSCAASGFTFRSYGMHWVRQAPGKGLEWVAVITYDGINKYYADSVEGRFTISRDNSKNTLYLQMNSLRAEDTAVYYCARDGVYYGVYDYWGQGTLVTVSS VL: not shown [29E, listing 2 of 2 here]	95%	71%	29%	24%	48%	186%	232%	1930 nM·min	7 min	14.1 min	17.1 min	235 nM	95 nM	81 nM	11.7 min	22.6 min	26.2 min				% ETP, Ab 50 nM [1]: 67%; % ETP, Ab 100 nM [1]: 62%; ETP [nM · min], Ab 50 nM [1]: 1360 nM·min; ETP [nM · min], Ab 100 nM [1]: 1260 nM·min
TF-011 (antibody, V domains shown) VH: EVQLLESGGGLVQPGGSLRLSCAASGFTFSNYAMSWVRQAPGKGLEWVSSISGSGDYTYYTDSVKGRFTISRDNSKNTLYLQMNSLRAEDTAVYYCARSPWGYYLDSWGQGTLVTVSS VL: DIQMTQSPPSLSASAGDRVTITCRASQGISSRLAWYQQKPEKAPKSLIYAASSLQSGVPSRFSGSGSGTDFTLTISSLQPEDFATYYCQQYNSYPYTFGQGTKLEIK [TF-011, listing 1 of 2 here]																			10%		
TF-011 (antibody, V domains shown) VH: EVQLLESGGGLVQPGGSLRLSCAASGFTFSNYAMSWVRQAPGKGLEWVSSISGSGDYTYYTDSVKGRFTISRDNSKNTLYLQMNSLRAEDTAVYYCARSPWGYYLDSWGQGTLVTVSS VL: DIQMTQSPPSLSASAGDRVTITCRASQGISSRLAWYQQKPEKAPKSLIYAASSLQSGVPSRFSGSGSGTDFTLTISSLQPEDFATYYCQQYNSYPYTFGQGTKLEIK [TF-011, listing 2 of 2 here]	85%	47%	12%		86%	284%	353%	1710 nM·min	8 min	21.3 min		156 nM	39 nM	30 nM	14.7 min	30.3 min	35.8 min				
25A (antibody, human IgG1, V domains shown) VH: QVQLVQSGAEVKKPGASVKVSCKASGYTFDVYGISWVRQAPGQGLEWMGWIAPYNGNTNYAQKLQGRVTMTTDTSTSTAYMELRSLRSDDTAVYYCARDAGTYSPFGYGMDVWGQGTTVTVSS VL: DIQMTQSPSTLSASVGDRVTITCRASQSISSWLAWYQQKPGKAPKLLIYKASSLESGVPSRFSGSGSGTEFTLTISSLQPDDFATYYCQQFQSLPPFTFGGGTKVEIK		97%	95%	95%	4%	9%	9%	2110 nM·min	5 min	5.2 min	5.2 min	322 nM	317 nM	317 nM	8.2 min	8.6 min	8.6 min				ETP [nM · min], Ab 50 nM [1]: 2120 nM·min; ETP [nM · min], Ab 100 nM [1]: 2130 nM·min
5G9 (humanized TF8-5G9, CNTO 860) (antibody, V domains shown) VH: QVQLVESGGGVVQPGRSLRLSCKASGFNIKDYYMHWVRQAPGKGLEWIGLIDPENGNTIYDPKFQGRFTISADNSKNTLFLQMDSLRPEDTAVYYCARDNSYYFDYWGQGTPVTVSS VL: DIQMTQSPSSLSASVGDRVTITCKASQDIRKYLNWYQQKPGKAPKLLIYYATSLADGVPSRFSGSGSGTDYTFTISSLQPEDIATYYCLQHGESPYTFGQGTKLEIT [5G9 (humanized TF8-5G9, CNTO 860), listing 1 of 2 here]																		11%	8%	8%	% ttPeak, TGA 10 min pre-incubation, 10 nM Ab (Relipidated TF): 314%; % ttPeak, TGA 10 min pre-incubation, 50 nM Ab (Relipidated TF): 386%; % ttPeak, TGA 10 min pre-incubation, 100 nM Ab (Relipidated TF): 436%; Lag Time, TGA 10 min pre-incubation, 10 nM Ab (Relipidated TF): 19.3 min; Lag Time, TGA 10 min pre-incubation, 50 nM Ab (Relipidated TF): 23.6 min; Lag Time, TGA 10 min pre-incubation, 100 nM Ab (Relipidated TF): 26.7 min; Peak IIa, TGA […] min pre-incubation, 10 nM Ab (Relipidated TF): 30 nM; Peak IIa, TGA […] min pre-incubation, 50 nM Ab (Relipidated TF): 23 nM; Peak IIa, TGA […] min pre-incubation, 100 nM Ab (Relipidated TF): 22 nM; ttPeak, TGA 10 min pre-incubation, 10 nM Ab (Relipidated TF): 29 min; ttPeak, TGA 10 min pre-incubation, 50 nM Ab (Relipidated TF): 34 min; ttPeak, TGA 10 min pre-incubation, 100 nM Ab (Relipidated TF): 37.5 min
5G9 (humanized TF8-5G9, CNTO 860) (antibody, V domains shown) VH: QVQLVESGGGVVQPGRSLRLSCKASGFNIKDYYMHWVRQAPGKGLEWIGLIDPENGNTIYDPKFQGRFTISADNSKNTLFLQMDSLRPEDTAVYYCARDNSYYFDYWGQGTPVTVSS VL: DIQMTQSPSSLSASVGDRVTITCKASQDIRKYLNWYQQKPGKAPKLLIYYATSLADGVPSRFSGSGSGTDYTFTISSLQPEDIATYYCLQHGESPYTFGQGTKLEIT [5G9 (humanized TF8-5G9, CNTO 860), listing 2 of 2 here]	58%	24%	8%	8%	135%	338%	401%	1180 nM·min	10.4 min	25.1 min	29.9 min	79 nM	28 nM	27 nM	18.6 min	34.6 min	39.6 min				
